Data from patent publication WO2013091903A1 (dated 2013).

Assays:
[1] = biological target: human ORAI1 (CRAC channel membrane protein 1) (human, UniProt Q96D31 1-301); experiment: cell-based or functional assay
[2] = biological target: T1, Peptide 1454 (part of the second extracellular loop of human ORAI1) (human); experiment: direct peptide ELISA, peptide coated at 1 ug/ml; (-) indicates binding could not be detected
T1 peptide: PASGAAANVSTSGITPGQA

[3] = biological target: T2, Peptide 1455 (part of the second extracellular loop of human ORAI1) (human); experiment: direct peptide ELISA, peptide coated at 1 ug/ml; (+) indicates binding was detected
T2 peptide: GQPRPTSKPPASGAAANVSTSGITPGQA

[4] = biological target: T3, Peptide 1415 (entire second extracellular loop of human ORAI1) (human); experiment: as above
T3 peptide: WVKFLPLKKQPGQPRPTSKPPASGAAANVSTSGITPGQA

Sequence of human ORAI1 (CRAC channel membrane protein 1) (Q96D31 whole entry, form in doubt): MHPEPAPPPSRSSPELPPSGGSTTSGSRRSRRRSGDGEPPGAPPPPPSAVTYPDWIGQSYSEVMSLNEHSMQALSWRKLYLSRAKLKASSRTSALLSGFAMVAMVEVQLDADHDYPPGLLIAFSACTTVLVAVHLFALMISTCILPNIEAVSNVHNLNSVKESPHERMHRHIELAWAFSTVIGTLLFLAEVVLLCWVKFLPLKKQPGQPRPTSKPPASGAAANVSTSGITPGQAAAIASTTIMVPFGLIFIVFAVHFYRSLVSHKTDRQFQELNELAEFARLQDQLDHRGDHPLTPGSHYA

Row | Binder | IC50 of inhibition of PBMC (T cell) proliferation, anti-CD3/CD28 stimulation [1] [µg/mL] | binding result [2] | binding result [3] | binding result [4]
1 | anti-M-CRAC1415-10F8 A2B6C1 (antibody, IgG1, V domains shown) VH: QVQLQQSGAELVRPGSSVKISCKASGYAFRSYWMNWVKQRPGQGLEWIGHIYPGDGDTNYNGKFKGKATLTADKSSSTAYMQLSSLTSEDSAVYLCGRGGTTVVVDYWGQGTTLTVSS VL: DIVMSQSPSSLAVSAGEKVTMSCKSSQSLLNSRTRKNYLAWYQQKPGQSPKLLIYWASTRESGVPDRFTGSGSGTDFTLTISSVQAEDLAVYYCKQSYNLPWTFGGGTKLEIKR | 1 | – | – | –
2 | M-hCRAC1415-15F3A6 (antibody, IgG1, V domains shown, same variable domains as 17F6A2) VH: QVQLQQSGAELVRPGSSVKISCKASGYAFSSYWMNWVKQRPGQGLEWIGHIYPGDADTNYNGKFKGKATLTADKSSSTAYMHLSSLTSEDSAVYFCSRQLGFRYAMDYWGQGTSVTVSS VL: DIVMSQSPSSLAVSAGEKVTMSCKSSQSLLNSRTRKNYLAWYQQKPGQSPKLLIYWASTRESGVPDRFTGSGSGTDFTLTISSVQAEDLAVYYCKQSYNLRTFGGGTKLEIKR | – | no binding | binds | binds
3 | M-hCRAC1415-14F74A1 (antibody, mouse IgG1, V domains shown, Mouse monoclonal, kappa light chain; also called Anti-M-CRAC1415-14F74A1) VH: QVQLQQSGAELVRPGSSVKISCKASGYAFSSYWMNWVKQRPGQGLEWIGHIYPGDGDTNYNGKFKGKATLTADKSSSTAYMQLSGLTSEDSAVYFCARSGRLRFAMDYWGQGTSVTVSS VL: DIVMSQSPSSLAVSAGEKVTMSCKSSQSLLNSRTRKNYLAWYQQKPGQSPKLLIYWASTRESGVPDRFTGSGSGTDFTLTISSVQAEDLAVYYCKQSYNLRTFGGGTKLEIQR | – | no binding | binds | binds
4 | M-hCRAC1415-15F45A1 (antibody, IgG1, V domains shown, same variable domains as 17F6A2) VH: QVQLQQSGAELVRPGSSVKISCKASGYAFSSYWMNWVKQRPGQGLEWIGHIYPGDADTNYNGKFKGKATLTADKSSSTAYMHLSSLTSEDSAVYFCSRQLGFRYAMDYWGQGTSVTVSS VL: DIVMSQSPSSLAVSAGEKVTMSCKSSQSLLNSRTRKNYLAWYQQKPGQSPKLLIYWASTRESGVPDRFTGSGSGTDFTLTISSVQAEDLAVYYCKQSYNLRTFGGGTKLEIKR | – | no binding | binds | binds
5 | M-hCRAC1415-17F1A4B6 (antibody, IgG1, V domains shown, same variable domains as 17F6A2) VH: QVQLQQSGAELVRPGSSVKISCKASGYAFSSYWMNWVKQRPGQGLEWIGHIYPGDADTNYNGKFKGKATLTADKSSSTAYMHLSSLTSEDSAVYFCSRQLGFRYAMDYWGQGTSVTVSS VL: DIVMSQSPSSLAVSAGEKVTMSCKSSQSLLNSRTRKNYLAWYQQKPGQSPKLLIYWASTRESGVPDRFTGSGSGTDFTLTISSVQAEDLAVYYCKQSYNLRTFGGGTKLEIKR | – | no binding | binds | binds
6 | M-hCRAC1415-17F6A2 (antibody, mouse IgG1, V domains shown, Mouse monoclonal, kappa light chain; also called Anti-M-CRAC1415-17F6A2) VH: QVQLQQSGAELVRPGSSVKISCKASGYAFSSYWMNWVKQRPGQGLEWIGHIYPGDADTNYNGKFKGKATLTADKSSSTAYMHLSSLTSEDSAVYFCSRQLGFRYAMDYWGQGTSVTVSS VL: DIVMSQSPSSLAVSAGEKVTMSCKSSQSLLNSRTRKNYLAWYQQKPGQSPKLLIYWASTRESGVPDRFTGSGSGTDFTLTISSVQAEDLAVYYCKQSYNLRTFGGGTKLEIKR | – | no binding | binds | binds
